# Patent US20230365662A1
# Changes are numbered by the printed parent chain. Names may count otherwise. “And” between values parts separate entries of the source, which are not always exact repeats. Identical values can stand only once.
# B1: KB001 mouse Fab VL S26T (Fab, V domains shown)
# VH: EVQLKQSGPGLVAPSQSLSITCTVSGFSLSIYSVHWVRQPPGKGLEWLGMIWGGGSSDYNSALKSRLSISKDNSKSQVFLKMNSLQTDDTAMYYCARNGNFYAMDYWGQGTSVTVSS
# VL: QIVLTQSPAIMSASLGERVTMTCTATSSVSSSFLHWYQQKPGSSPQLWIYSTSNLASGVPARFSGSGSGTSYSLTISSMEAEDAATYYCHQYHHSPYIYTFGGGTKLEIK
# B2: KB001 mouse Fab VL S31Q (Fab, V domains shown)
# VH: B1 VH
# VL: B1 VL with T26S, S31Q
# B3: KB001 mouse Fab VL L34I (Fab, V domains shown)
# VH: B1 VH
# VL: B1 VL with T26S, L34I
# B4: KB001 mouse Fab VL S27L (Fab, V domains shown)
# VH: B1 VH
# VL: B1 VL with T26S, S27L
# B5: KB001 mouse Fab VL S27W (Fab, V domains shown)
# VH: B1 VH
# VL: B1 VL with T26S, S27W
# B6: KB001 mouse Fab VL S30I (Fab, V domains shown)
# VH: B1 VH
# VL: B1 VL with T26S, S30I
# B7: KB001 mouse Fab VL S28D (Fab, V domains shown)
# VH: B1 VH
# VL: B1 VL with T26S, S28D
# B8: KB001 mouse Fab VL S30R (Fab, V domains shown)
# VH: B1 VH
# VL: B1 VL with T26S, S30R
# B9: KB001 mouse Fab VL S30D (Fab, V domains shown)
# VH: B1 VH
# VL: B1 VL with T26S, S30D
# B10: KB001 mouse Fab VL S32W (Fab, V domains shown)
# VH: B1 VH
# VL: B1 VL with T26S, S32W
# B11: KB001 mouse Fab VL S27N (Fab, V domains shown)
# VH: B1 VH
# VL: B1 VL with T26S, S27N
# B12: KB001 mouse Fab VL S32G (Fab, V domains shown)
# VH: B1 VH
# VL: B1 VL with T26S, S32G
# B13: KB001 mouse Fab VL V29I (Fab, V domains shown)
# VH: B1 VH
# VL: B1 VL with T26S, V29I
# B14: KB001 mouse Fab VL S31D (Fab, V domains shown)
# VH: B1 VH
# VL: B1 VL with T26S, S31D
# B15: KB001 mouse Fab VL S31W (Fab, V domains shown)
# VH: B1 VH
# VL: B1 VL with T26S, S31W
# B16: KB001 mouse Fab VL T52R (Fab, V domains shown)
# VH: B1 VH
# VL: B1 VL with T26S, T52R
# B17: KB001 mouse Fab VL S27H (Fab, V domains shown)
# VH: B1 VH
# VL: B1 VL with T26S, S27H
# B18: KB001 mouse Fab VL F33H (Fab, V domains shown)
# VH: B1 VH
# VL: B1 VL with T26S, F33H
# B19: KB001 mouse Fab VL V29L (Fab, V domains shown)
# VH: B1 VH
# VL: B1 VL with T26S, V29L
# B20: KB001 mouse Fab VL S32A (Fab, V domains shown)
# VH: B1 VH
# VL: B1 VL with T26S, S32A
# B21: KB001 mouse Fab VL S30K (Fab, V domains shown)
# VH: B1 VH
# VL: B1 VL with T26S, S30K
# B22: KB001 mouse Fab VL S28T/S12R (Fab, V domains shown)
# VH: B1 VH
# VL: B1 VL with S12R, T26S, S28T
# B23: KB001 mouse Fab VL S30E (Fab, V domains shown)
# VH: B1 VH
# VL: B1 VL with T26S, S30E
# B24: KB001 mouse Fab VL T52K (Fab, V domains shown)
# VH: B1 VH
# VL: B1 VL with T26S, T52K
# B25: KB001 mouse Fab VL S30W (Fab, V domains shown)
# VH: B1 VH
# VL: B1 VL with T26S, S30W
# B26: KB001 mouse Fab VL S32Q (Fab, V domains shown)
# VH: B1 VH
# VL: B1 VL with T26S, S32Q
# B27: KB001 mouse Fab VL S30H (Fab, V domains shown)
# VH: B1 VH
# VL: B1 VL with T26S, S30H
# B28: KB001 mouse Fab VL S30L (Fab, V domains shown)
# VH: B1 VH
# VL: B1 VL with T26S, S30L
# B29: KB001 mouse Fab VL S28H (Fab, V domains shown)
# VH: B1 VH
# VL: B1 VL with T26S, S28H
# B30: KB001 mouse Fab VL F33N (Fab, V domains shown)
# VH: B1 VH
# VL: B1 VL with T26S, F33N
# B31: KB001 mouse Fab VL S28N (Fab, V domains shown)
# VH: B1 VH
# VL: B1 VL with T26S, S28N
# B32: KB001 mouse Fab VL S30T (Fab, V domains shown)
# VH: B1 VH
# VL: B1 VL with T26S, S30T
# B33: KB001 mouse Fab VL S27K/S68Y (Fab, V domains shown)
# VH: B1 VH
# VL: B1 VL with T26S, S27K, S68Y
# B34: KB001 mouse Fab VL S27M (Fab, V domains shown)
# VH: B1 VH
# VL: B1 VL with T26S, S27M
# B35: KB001 mouse Fab VL S27V (Fab, V domains shown)
# VH: B1 VH
# VL: B1 VL with T26S, S27V
# B36: KB001 mouse Fab VL S32P (Fab, V domains shown)
# VH: B1 VH
# VL: B1 VL with T26S, S32P
# B37: KB001 mouse Fab VL L34V (Fab, V domains shown)
# VH: B1 VH
# VL: B1 VL with T26S, L34V
# B38: KB001 mouse Fab VL S27Y (Fab, V domains shown)
# VH: B1 VH
# VL: B1 VL with T26S, S27Y
# B39: KB001 mouse Fab VL S30M (Fab, V domains shown)
# VH: B1 VH
# VL: B1 VL with T26S, S30M
# B40: KB001 mouse Fab VL S32Y (Fab, V domains shown)
# VH: B1 VH
# VL: B1 VL with T26S, S32Y
# B41: KB001 mouse Fab VL L34M (Fab, V domains shown)
# VH: B1 VH
# VL: B1 VL with T26S, L34M
# B42: KB001 mouse Fab VL S28M (Fab, V domains shown)
# VH: B1 VH
# VL: B1 VL with T26S, S28M
# Biological target: HRgpA-6H (Porphyromonas gingivalis) (UniProt P28784)
# Assay: ELISA, FASEBA Fab on coated HRgpA-6H
# UniProt P28784, sequence (P28784 228-991): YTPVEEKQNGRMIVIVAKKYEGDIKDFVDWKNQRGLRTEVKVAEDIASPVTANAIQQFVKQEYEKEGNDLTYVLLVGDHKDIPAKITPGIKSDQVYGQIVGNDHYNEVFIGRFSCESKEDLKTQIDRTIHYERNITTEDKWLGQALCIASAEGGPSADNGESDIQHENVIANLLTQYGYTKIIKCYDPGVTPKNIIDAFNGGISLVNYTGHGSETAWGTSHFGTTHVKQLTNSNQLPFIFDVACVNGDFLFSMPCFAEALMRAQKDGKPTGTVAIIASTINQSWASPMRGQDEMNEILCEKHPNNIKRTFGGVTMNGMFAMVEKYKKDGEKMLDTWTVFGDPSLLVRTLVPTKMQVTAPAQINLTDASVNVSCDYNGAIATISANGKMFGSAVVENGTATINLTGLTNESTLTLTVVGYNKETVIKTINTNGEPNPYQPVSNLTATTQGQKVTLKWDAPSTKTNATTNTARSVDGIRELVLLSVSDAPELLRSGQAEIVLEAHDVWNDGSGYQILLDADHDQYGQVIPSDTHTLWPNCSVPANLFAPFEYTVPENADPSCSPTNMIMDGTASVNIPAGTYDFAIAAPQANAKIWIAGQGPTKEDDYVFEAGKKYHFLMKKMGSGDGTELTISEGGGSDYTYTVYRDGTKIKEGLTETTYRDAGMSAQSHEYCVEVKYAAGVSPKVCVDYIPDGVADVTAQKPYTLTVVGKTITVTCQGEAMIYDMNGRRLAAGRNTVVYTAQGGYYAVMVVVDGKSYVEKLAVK
Binder,OD450nm,Ratio OD(Variant)/OD(WT)
B1,0.761,0.972
B2,0.83 and 0.745 and 0.782,0.982 and 0.882 and 0.925
B3,0.67,0.884
B4,0.649,0.865
B5,0.601,0.801
B6,0.86,0.998
B7,0.745 and 0.722,0.993 and 0.962
B8,0.778 and 0.793 and 0.802,0.903 and 0.92 and 0.93
B9,0.702 and 0.723,0.814 and 0.839
B10,0.649,0.856
B11,0.675 and 0.724 and 0.64,0.899 and 0.965 and 0.853
B12,0.759,0.898
B13,0.853,0.99
B14,0.762,0.902
B15,0.808,0.956
B16,0.724 and 0.681 and 0.685,0.919 and 0.865 and 0.87
B17,0.664 and 0.63 and 0.726,0.885 and 0.839 and 0.967
B18,0.736,0.971
B19,0.751,0.871
B20,0.748 and 0.805,0.885 and 0.953
B21,0.77,0.893

Binder,OD450nm,Ratio OD(Variant)/OD(WT)
B22,0.747,0.995
B23,0.813,0.943
B24,0.681,0.865
B25,0.823,0.955
B26,0.716,0.847
B27,0.808 and 0.747,0.937 and 0.867
B28,0.813,0.943
B29,0.719,0.958
B30,0.64,0.844
B31,0.743,0.99
B32,0.838 and 0.817,0.972 and 0.948
B33,0.736,0.981
B34,0.709,0.945
B35,0.645 and 0.646,0.859 and 0.861
B36,0.744,0.88
B37,0.641 and 0.634,0.846 and 0.836
B38,0.617,0.822
B39,0.818,0.949
B40,0.753,0.891
B41,0.736 and 0.741 and 0.714,0.971 and 0.978 and 0.911
B42,0.706 and 0.675,0.941 and 0.899
